Experimental data: paper PMC8155012, “Architecture of the Sema3A/PlexinA4/Neuropilin tripartite complex” (Nature Communications, 2021)

T1: FLAG-tagged PlexinA4 extracellular region K343E (mouse, UniProt Q80UG2 33-1226, K343E)
T1 construct: mouse PlexinA4 residues 33–1226, extracellular region, K343E; also called PlexinA4-K343E; source: Expi293F, purified from medium (Ni-NTA, Superose 6); not shown: FLAG, N-terminal, kept
T1 sequence (looked up): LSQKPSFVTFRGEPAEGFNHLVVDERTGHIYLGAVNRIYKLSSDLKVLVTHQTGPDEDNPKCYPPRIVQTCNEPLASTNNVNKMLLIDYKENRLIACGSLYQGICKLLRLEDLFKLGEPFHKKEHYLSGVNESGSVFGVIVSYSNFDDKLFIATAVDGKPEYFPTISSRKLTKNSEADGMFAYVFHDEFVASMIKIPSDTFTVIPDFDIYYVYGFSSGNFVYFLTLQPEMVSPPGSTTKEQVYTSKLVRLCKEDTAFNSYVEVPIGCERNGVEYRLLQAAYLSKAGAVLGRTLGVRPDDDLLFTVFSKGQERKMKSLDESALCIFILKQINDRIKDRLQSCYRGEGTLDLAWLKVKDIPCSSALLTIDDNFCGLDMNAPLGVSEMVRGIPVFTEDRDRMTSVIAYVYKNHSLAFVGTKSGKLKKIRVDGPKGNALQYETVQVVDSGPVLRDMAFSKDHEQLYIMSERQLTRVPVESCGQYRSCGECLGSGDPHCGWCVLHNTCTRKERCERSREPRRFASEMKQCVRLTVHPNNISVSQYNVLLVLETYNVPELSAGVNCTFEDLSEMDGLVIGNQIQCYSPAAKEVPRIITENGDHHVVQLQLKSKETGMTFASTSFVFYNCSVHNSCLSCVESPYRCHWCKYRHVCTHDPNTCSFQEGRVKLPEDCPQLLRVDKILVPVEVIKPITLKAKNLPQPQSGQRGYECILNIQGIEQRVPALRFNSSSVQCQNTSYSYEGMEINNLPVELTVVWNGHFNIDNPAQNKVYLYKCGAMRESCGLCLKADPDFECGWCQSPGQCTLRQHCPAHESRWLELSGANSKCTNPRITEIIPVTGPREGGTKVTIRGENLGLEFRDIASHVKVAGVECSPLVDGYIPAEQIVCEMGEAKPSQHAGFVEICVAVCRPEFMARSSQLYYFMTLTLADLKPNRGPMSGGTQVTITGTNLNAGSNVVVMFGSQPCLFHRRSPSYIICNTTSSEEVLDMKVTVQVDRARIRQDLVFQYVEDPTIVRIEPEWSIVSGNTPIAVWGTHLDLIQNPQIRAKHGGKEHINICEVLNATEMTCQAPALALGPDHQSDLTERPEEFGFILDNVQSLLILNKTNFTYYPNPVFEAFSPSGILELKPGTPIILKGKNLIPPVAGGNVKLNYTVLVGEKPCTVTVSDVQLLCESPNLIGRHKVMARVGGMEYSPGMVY

T2: FLAG-tagged PlexinA4 extracellular region (mouse, UniProt Q80UG2 33-1226)
T2 construct: mouse PlexinA4 residues 33–1226, extracellular region; FLAG inserted immediately after the signal peptide; also called PlexinA4-WT; source: Expi293F, purified from medium (Ni-NTA, Superose 6); not shown: FLAG, N-terminal, kept
T2 sequence (looked up): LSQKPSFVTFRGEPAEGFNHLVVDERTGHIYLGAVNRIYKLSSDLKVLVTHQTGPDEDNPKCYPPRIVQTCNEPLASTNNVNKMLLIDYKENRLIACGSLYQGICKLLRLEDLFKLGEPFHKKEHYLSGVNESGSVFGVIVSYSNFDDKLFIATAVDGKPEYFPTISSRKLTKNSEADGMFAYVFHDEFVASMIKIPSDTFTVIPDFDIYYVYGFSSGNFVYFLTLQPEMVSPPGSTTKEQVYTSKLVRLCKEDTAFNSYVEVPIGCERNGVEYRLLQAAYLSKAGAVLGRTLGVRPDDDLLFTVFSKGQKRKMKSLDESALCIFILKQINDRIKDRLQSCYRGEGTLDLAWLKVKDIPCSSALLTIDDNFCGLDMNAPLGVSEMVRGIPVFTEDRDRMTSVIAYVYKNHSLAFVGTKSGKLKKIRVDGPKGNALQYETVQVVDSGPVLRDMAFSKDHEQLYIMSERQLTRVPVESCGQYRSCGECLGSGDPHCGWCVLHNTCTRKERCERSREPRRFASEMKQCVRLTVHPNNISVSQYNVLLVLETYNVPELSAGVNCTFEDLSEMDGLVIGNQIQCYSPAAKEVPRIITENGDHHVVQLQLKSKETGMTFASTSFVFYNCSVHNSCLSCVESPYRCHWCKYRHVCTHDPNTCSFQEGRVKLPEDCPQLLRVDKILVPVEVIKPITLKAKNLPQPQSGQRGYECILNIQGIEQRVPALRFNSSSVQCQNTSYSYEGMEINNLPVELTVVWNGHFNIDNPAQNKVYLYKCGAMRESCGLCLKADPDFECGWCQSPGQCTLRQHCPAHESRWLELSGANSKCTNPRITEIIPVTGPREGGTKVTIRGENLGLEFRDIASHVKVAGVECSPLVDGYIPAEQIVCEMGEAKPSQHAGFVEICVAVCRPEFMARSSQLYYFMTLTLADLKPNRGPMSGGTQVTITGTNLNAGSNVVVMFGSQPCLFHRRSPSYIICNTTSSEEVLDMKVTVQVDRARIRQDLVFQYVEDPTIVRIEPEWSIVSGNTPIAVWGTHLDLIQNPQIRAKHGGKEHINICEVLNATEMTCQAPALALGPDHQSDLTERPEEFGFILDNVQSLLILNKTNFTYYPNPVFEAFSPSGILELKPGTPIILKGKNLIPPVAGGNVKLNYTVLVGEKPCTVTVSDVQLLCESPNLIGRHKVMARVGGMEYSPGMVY


Experiments:
[1] = target: T1, FLAG-tagged PlexinA4 extracellular …; test: pull-down; FLAG-tagged PlexinA4 (20 µg) on anti-FLAG antibody resin; Nrp1 and Sema3A, 30 µg each, added together; 20 mM HEPES (pH 7.5), 150 mM NaCl, 1 mM CaCl2, 4 °C, 1 h; SDS-PAGE, Coomassie blue; settings: both partners purified
[2] = target: T2, FLAG-tagged PlexinA4 extracellular …; test: as above; settings: both partners purified

Binder | binding result [1] | binding result [2]
Sema3A (21–770) (ligand, mouse, UniProt O08665 21-770, looked up, mouse Sema3A residues 21–770, ending at Arg770; internal furin sites mutated; without the A106K mutation; PDB 7M0R holds the A106K form; also called Sema3A-WT; wild-type Sema3A; source: Expi293F, purified from medium (Ni-NTA, Superose 6)) NYANGKNNVPRLKLSYKEMLESNNVITFNGLANSSSYHTFLLDEERSRLYVGAKDHIFSFNLVNIKDFQKIVWPVSYTRRDECKWAGKDILKECANFIKVLEAYNQTHLYACGTGAFHPICTYIEVGHHPEDNIFKLQDSHFENGRGKSPYDPKLLTASLLIDGELYSGTAADFMGRDFAIFRTLGHHHPIRTEQHDSRWLNDPRFISAHLIPESDNPEDDKVYFFFRENAIDGEHSGKATHARIGQICKNDFGGHRSLVNKWTTFLKARLICSVPGPNGIDTHFDELQDVFLMNSKDPKNPIVYGVFTTSSNIFKGSAVCMYSMSDVRRVFLGPYAHRDGPNYQWVPYQGRVPYPRPGTCPSKTFGGFDSTKDLPDDVITFARSHPAMYNPVFPINNRPIMIKTDVNYQFTQIVVDRVDAEDGQYDVMFIGTDVGTVLKVVSVPKETWHDLEEILLEEMTVFREPTTISAMELSTKQQQLYIGSTAGVAQLPLHRCDIYGKACAECCLARDPYCAWDGSSCSRYFPTAKARTRAQDIRNGDPLTHCSDLQHHDNHHGPSLEERIIYGVENSSTFLECSPKSQRALVYWQFQRRNEDRKEEIRMGDHIIRTEQGLLLRSLQKKDSGNYLCHAVEHGFMQTLLKVTLEVIDTEHLEELLHKDDDGDGSKIKEMSSSMTPSQKVWYRDFMQLINHPNLNTMDEFCEQVWKRDAAQAAQRPGHSQGSSNKWKHMQESKKGANRATHEFERAPR | binds | binds
Nrp1-a1a2b1b2 (receptor, mouse, UniProt P97333 22-588, looked up, mouse Neuropilin 1 residues 22–588, domains a1, a2, b1 and b2; also called MAM-domain truncated version of Nrp1; Nrp1-WT; source: Expi293F, transfected alone or co-expressed with Sema3A and PlexinA4, purified from medium (Ni-NTA, Superose 6)) FRSDKCGGTIKIENPGYLTSPGYPHSYHPSEKCEWLIQAPEPYQRIMINFNPHFDLEDRDCKYDYVEVIDGENEGGRLWGKFCGKIAPSPVVSSGPFLFIKFVSDYETHGAGFSIRYEIFKRGPECSQNYTAPTGVIKSPGFPEKYPNSLECTYIIFAPKMSEIILEFESFDLEQDSNPPGGMFCRYDRLEIWDGFPEVGPHIGRYCGQKTPGRIRSSSGVLSMVFYTDSAIAKEGFSANYSVLQSSISEDFKCMEALGMESGEIHSDQITASSQYGTNWSVERSRLNYPENGWTPGEDSYKEWIQVDLGLLRFVTAVGTQGAISKETKKKYYVKTYRVDISSNGEDWISLKEGNKAIIFQGNTNPTDVVLGVFSKPLITRFVRIKPVSWETGISMRFEVYGCKITDYPCSGMLGMVSGLISDSQITASNQADRNWMPENIRLVTSRTGWALPPSPHPYTNEWLQVDLGDEKIVRGVIIQGGKHRENKVFMRKFKIAYSNNGSDWKTIMDDSKRKAKSFEGNNNYDTPELRTFSPLSTRFIRIYPERATHSGLGLRMELLGCEVEAP | binds | binds
